Measurements: publication PMC8585947, “Structure of Escherichia coli cytochrome bd-II type oxidase with bound aurachin D” (Nature Communications, 2021)

Biological target: Escherichia coli cytochrome bd-II type oxidase (hetero-trimer of AppC, AppB and AppX) (E. coli) (UniProt P26459)
Experiment: cryo-EM structure; bd-II in amphipol A8-35, 5.6 mg/mL, incubated with aurachin D; 20 mM MOPS, 20 mM NaCl, pH 7.0; C2 symmetry imposed; 3.0 Å

stoichiometry N: 2
Substance: Escherichia coli cytochrome bd-II type oxidase (hetero-trimer of AppC, AppB and AppX) (from UniProt P26459 1-514; P26458 1-378; P24244 1-30) (complex)
